Laboratory results taken from patent US20120328512A1 (BRACCO IMAGING S P A, published 2012).
Bridge positions count the residues as written; N and C are the ends. Square brackets hold non-standard residues; d marks the D form. Primed or numbered codes have the meaning given here. Ends that are not written are not given here. * marks the point of attachment. αGalNAc = CC(=O)N[C@@H]1[C@@H](O)[C@@H](O)[C@@H](CO)O[C@@H]1*; Phe(3,4-F2) = N[C@@H](Cc1ccc(F)c(F)c1)C(=O)O; Thf2ca = tetrahydrofuran-2-carboxylic acid; CF5″ = 5-carboxyfluorescein label; Hyp = O=C(O)[C@@H]1C[C@@H](O)CN1; Cha = N[C@@H](CC1CCCCC1)C(=O)O; CF5 = 5-carboxyfluorescein; AEEA = NCCOCCOCC(=O)O

T1: DDE
T1 chain 1: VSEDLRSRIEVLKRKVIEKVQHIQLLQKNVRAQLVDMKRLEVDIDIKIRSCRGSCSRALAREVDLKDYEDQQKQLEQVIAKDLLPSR
T1 chain 2: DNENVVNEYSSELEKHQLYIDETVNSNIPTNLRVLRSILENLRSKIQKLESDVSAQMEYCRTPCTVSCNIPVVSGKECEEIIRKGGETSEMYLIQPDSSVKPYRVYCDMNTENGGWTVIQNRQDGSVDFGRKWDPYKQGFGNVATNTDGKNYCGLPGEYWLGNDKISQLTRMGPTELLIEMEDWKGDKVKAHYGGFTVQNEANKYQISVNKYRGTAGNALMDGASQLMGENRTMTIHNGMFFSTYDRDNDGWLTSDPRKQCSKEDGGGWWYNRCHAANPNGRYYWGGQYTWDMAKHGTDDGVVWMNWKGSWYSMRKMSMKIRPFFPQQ
T1 chain 3: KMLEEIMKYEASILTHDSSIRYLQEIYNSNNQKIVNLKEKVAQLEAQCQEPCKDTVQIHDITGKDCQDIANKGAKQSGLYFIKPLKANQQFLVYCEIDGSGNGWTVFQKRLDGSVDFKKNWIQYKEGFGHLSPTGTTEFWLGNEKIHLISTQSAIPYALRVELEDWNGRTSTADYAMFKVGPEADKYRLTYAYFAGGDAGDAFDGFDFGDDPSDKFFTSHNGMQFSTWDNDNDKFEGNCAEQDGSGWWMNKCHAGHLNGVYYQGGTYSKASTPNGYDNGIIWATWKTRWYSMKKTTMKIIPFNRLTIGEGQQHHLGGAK
T1 chain 4: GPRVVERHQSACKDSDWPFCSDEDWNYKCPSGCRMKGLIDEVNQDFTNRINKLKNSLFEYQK
T1 chain 5: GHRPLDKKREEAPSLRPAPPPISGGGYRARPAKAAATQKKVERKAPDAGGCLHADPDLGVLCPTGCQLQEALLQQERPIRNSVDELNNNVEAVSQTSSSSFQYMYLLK
T1 chain 6: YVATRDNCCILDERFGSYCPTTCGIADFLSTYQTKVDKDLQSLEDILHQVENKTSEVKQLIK

B1: Seq047-P (peptide)
peptide: Ac-RRGGWQPC[Hyp]WESWTFCWDPGGGK-NH2
modifications: disulfide 8-16
SMILES: CC(=O)N[C@@H](CCCNC(=N)N)C(=O)N[C@@H](CCCNC(=N)N)C(=O)NCC(=O)NCC(=O)N[C@@H](Cc1c[nH]c2ccccc12)C(=O)N[C@@H](CCC(N)=O)C(=O)N1CCC[C@H]1C(=O)N[C@H]1CSSC[C@@H](C(=O)N[C@@H](Cc2c[nH]c3ccccc23)C(=O)N[C@@H](CC(=O)O)C(=O)N2CCC[C@H]2C(=O)NCC(=O)NCC(=O)NCC(=O)N[C@@H](CCCCN)C(N)=O)NC(=O)[C@H](Cc2ccccc2)NC(=O)[C@H]([C@@H](C)O)NC(=O)[C@H](Cc2c[nH]c3ccccc23)NC(=O)[C@H](CO)NC(=O)[C@H](CCC(=O)O)NC(=O)[C@H](Cc2c[nH]c3ccccc23)NC(=O)[C@@H]2C[C@@H](O)CN2C1=O
B2: Seq032-P (peptide)
peptide: Ac-WQPC[Hyp]WESWTFCWDPGGGK-NH2
modifications: disulfide 4-12
notes: also called Ac-WQPC*-Hypt4-WESWTFC*WDPGGGK-NH2
B3: Seq031-P (peptide)
peptide: Ac-S(αGalNAc)[AEEA]WQPCPWESWTFCWDPGGGK-NH2
modifications: disulfide 6-14
SMILES: CC(=O)N[C@H]1[C@@H](OC[C@H](NC(C)=O)C(=O)NCCOCCOCC(=O)N[C@@H](Cc2c[nH]c3ccccc23)C(=O)N[C@@H](CCC(N)=O)C(=O)N2CCC[C@H]2C(=O)N[C@H]2CSSC[C@@H](C(=O)N[C@@H](Cc3c[nH]c4ccccc34)C(=O)N[C@@H](CC(=O)O)C(=O)N3CCC[C@H]3C(=O)NCC(=O)NCC(=O)NCC(=O)N[C@@H](CCCCN)C(N)=O)NC(=O)[C@H](Cc3ccccc3)NC(=O)[C@H]([C@@H](C)O)NC(=O)[C@H](Cc3c[nH]c4ccccc34)NC(=O)[C@H](CO)NC(=O)[C@H](CCC(=O)O)NC(=O)[C@H](Cc3c[nH]c4ccccc34)NC(=O)[C@@H]3CCCN3C2=O)O[C@H](CO)[C@H](O)[C@@H]1O
B4: Seq029-P (peptide)
peptide: Ac-RRGGWQPCPWESWTFCWDPGGGK-NH2
modifications: disulfide 8-16
SMILES: CC(=O)N[C@@H](CCCNC(=N)N)C(=O)N[C@@H](CCCNC(=N)N)C(=O)NCC(=O)NCC(=O)N[C@@H](Cc1c[nH]c2ccccc12)C(=O)N[C@@H](CCC(N)=O)C(=O)N1CCC[C@H]1C(=O)N[C@H]1CSSC[C@@H](C(=O)N[C@@H](Cc2c[nH]c3ccccc23)C(=O)N[C@@H](CC(=O)O)C(=O)N2CCC[C@H]2C(=O)NCC(=O)NCC(=O)NCC(=O)N[C@@H](CCCCN)C(N)=O)NC(=O)[C@H](Cc2ccccc2)NC(=O)[C@H]([C@@H](C)O)NC(=O)[C@H](Cc2c[nH]c3ccccc23)NC(=O)[C@H](CO)NC(=O)[C@H](CCC(=O)O)NC(=O)[C@H](Cc2c[nH]c3ccccc23)NC(=O)[C@@H]2CCCN2C1=O
B5: Seq005-P (peptide)
peptide: Ac-WQPCPAESWTFCWDPGGGK-NH2
modifications: disulfide 4-12
SMILES: CC(=O)N[C@@H](Cc1c[nH]c2ccccc12)C(=O)N[C@@H](CCC(N)=O)C(=O)N1CCC[C@H]1C(=O)N[C@H]1CSSC[C@@H](C(=O)N[C@@H](Cc2c[nH]c3ccccc23)C(=O)N[C@@H](CC(=O)O)C(=O)N2CCC[C@H]2C(=O)NCC(=O)NCC(=O)NCC(=O)N[C@@H](CCCCN)C(N)=O)NC(=O)[C@H](Cc2ccccc2)NC(=O)[C@H]([C@@H](C)O)NC(=O)[C@H](Cc2c[nH]c3ccccc23)NC(=O)[C@H](CO)NC(=O)[C@H](CCC(=O)O)NC(=O)[C@H](C)NC(=O)[C@@H]2CCCN2C1=O
B6: Seq000-CF5 (peptide)
peptide: Ac-WQPCPWESWTFCWDPGGGK(CF5)-NH2
modifications: disulfide 4-12
notes: also called standard 5CF-labeled peptide
B7: Seq042-CF5 (peptide)
peptide: Ac-WQPCPAESWT[Cha]CWDPGGGK(CF5)-NH2
modifications: disulfide 4-12
notes: also called Ac-WQPC*PAESWT-Cha-C*WDPGGGK(CF5)-NH2

Target: T1, DDE
Experiment: competition fluorescence polarization: unlabeled peptide against Seq000-CF5 tracer on DDE; n = 2
In the case of B1, the “Rel IC50” value is reported as 0.75 ratio to the reference peptide. With Ac-GPPGWQPCPWESWTFCWDPGGGK-NH2 (disulfide 8-16) [Seq014-P] the “Rel IC50” value was 0.235 ratio to the reference peptide. For B2, the “Rel IC50” value was 0.55 ratio to the reference peptide. Ac-KKGWQPCPWESWTFCWDPGGGK-NH2 (disulfide 7-15) [Seq025-P] was tested, and the “Rel IC50” value was 0.357 ratio to the reference peptide. Ac-SGSGSGSGWQPCPWESWTFCWDPGGGK-NH2 (disulfide 12-20) [Seq024-P] was tested, and the “Rel IC50” value was 0.527 ratio to the reference peptide. B3 was tested, and the “Rel IC50” value was 1.15 ratio to the reference peptide. In the case of B4, the “Rel IC50” value is reported as 0.125 ratio to the reference peptide. Ac-KGKGKGWQPCPWESWTFCWDPGGGK-NH2 (disulfide 10-18) [Seq026-P] was tested, and the “Rel IC50” value was 0.595 ratio to the reference peptide. With H-RGWQPCPWESWTFCWDPGGGK-NH2 (disulfide 6-14) [Seq022-P] the “Rel IC50” value was 0.511 ratio to the reference peptide. Ac-GGRGWQPCPWESWTFCWDPGGGK-NH2 (disulfide 8-16) [Seq015-P] was tested, and the “Rel IC50” value was 0.37 ratio to the reference peptide. With H-RWQPCPWESWTFCWDPGGGK-NH2 (disulfide 5-13) [Seq023-P] the “Rel IC50” value was 0.47 ratio to the reference peptide. B5 was tested, and the “Rel IC50” value was 0.875 ratio to the reference peptide. Ac-SGSG[AEEA]WQPCPWESWTFCWDPGGGK-NH2 (disulfide 9-17) [Seq017-P] was tested, and the “Rel IC50” value was 0.714 ratio to the reference peptide.

Each binder was assayed against DDE (assay: direct binding fluorescence polarization: CF5-labeled peptide titrated with DDE; n = 2).
RWQPCPAESWT[Cha]CWDPGGGK(CF5)-NH2 (disulfide 5-13) [Seq057-CF5] showed a Kd of 30 nM.

Target: T1, DDE
Experiment: as above
Ac-GGRGWQPCPAESWTFCWDPGGGK(CF5)-NH2 (disulfide 8-16) [Seq035-CF5] showed a Kd of 520 nM. Work on Ac-GGRGWQPCPWESWTFCWDPGGGK(CF5)-NH2 (disulfide 8-16) [Seq015-CF5] yielded a Kd of 290 nM. For Ac-RRGGWQPCPAESWTFCWDPGGGK(CF5)-NH2 (disulfide 8-16) [Seq046-CF5], the Kd was 220 nM. Ac-GPPGWQPCPAESWTFCWDPGGGK(CF5)-NH2 (disulfide 8-16) [Seq034-CF5] showed a Kd of 310 nM. With Ac-SGSG[AEEA]WQPCPWESWTFCWDPGGGK(CF5″)-NH2 (disulfide 9-17) [Seq017-CF5] the Kd was 450 nM. Work on Ac-SGSGSGSGWQPCPAESWTFCWDPGGGK(CF5)-NH2 (disulfide 12-20) [Seq040-CF5] yielded a Kd of 530 nM. Ac-GPPGWQPCPWESWTFCWDPGGGK(CF5)-NH2 (disulfide 8-16) [Seq014-CF5] showed a Kd of 250 nM. Ac-SGSGSGSGWQPCPWESWTFCWDPGGGK(CF5)-NH2 (disulfide 12-20) [Seq024-CF5] gave a Kd of 470 nM. Ac-KGKGKGWQPCPWESWTFCWDPGGGK(CF5)-NH2 (disulfide 10-18) [Seq026-CF5] gave a Kd of 760 nM. Ac-SGSG[AEEA]WQPCPAESWTFCWDPGGGK(CF5)-NH2 (disulfide 9-17) [Seq045-CF5] gave a Kd of 570 nM. For B6, the Kd was 390 nM. Binder Ac-KKGWQPCPWESWTFCWDPGGGK(CF5)-NH2 (disulfide 7-15) [Seq025-CF5] has a Kd of 710 nM. Ac-GWQPCPWESWTFCWDPGGGK(CF5)-NH2 (disulfide 5-13) [Seq016-CF5] gave a Kd of 230 nM. For B7, the Kd was 170 nM.

Each binder was assayed against DDE (assay: competition fluorescence polarization: unlabeled peptide against Seq000-CF5 tracer on DDE; n = 2).
With Thf2ca-WQPCPWESWTFCWDPGGGK-NH2 (disulfide 4-12) [Seq028-P] the Rel IC50 (ratio to the reference peptide) was 0.616. In the case of Ac-S(αGalNAc)WQPCPWESWTFCWDPGGGK-NH2 (disulfide 5-13) [Seq027-P], the Rel IC50 (ratio to the reference peptide) is reported as 0.559. Ac-WQPCPWESWT[Phe(3,4-F2)]CWDPGGGK-NH2 (disulfide 4-12) [Seq020-P] was tested, and the Rel IC50 (ratio to the reference peptide) was 0.428. With H-GWQPCPWESWTFCWDPGGGK-NH2 (disulfide 5-13) [Seq021-P] the Rel IC50 (ratio to the reference peptide) was 0.622.
